This is an account of results in US7778779.

In this data set the target is T1, 19-residue peptide comprising amino acids 788-806 of human HIF-1α, Q16665.
T1 chain: DESGLPQLTSYDCEVNAPI

B1: FIH (Factor Inhibiting HIF), human (protein)
chain: MAATAAEAVASGSGEPREEAGALGPAWDESQLRSYSFPTRPIPRLSQSDPRAEELIENEEPVVLTDTNLVYPALKWDLEYLQENIGNGDFSVYSASTHKFLYYDEKKMANFQNFKPRSNREEMKFHEFVEKLQDIQQRGGEERLYLQQTLNDTVGRKIVMDFLGFNWNWINKQQGKRGWGQLTSNLLLIGMEGNVTPAHYDEQQNFFAQIKGYKRCILFPPDQFECLYPYPVHHPCDRQSQVDFDNPDYERFPNFQNVVGYETVVGPGDVLYIPMYWWHHIESLLNGGITITVNFWYKGAPTPKRIEYPLKAHQKVAIMRNIEKMLGEALGNPQEVGPLLNTMIKGRYN
As for B1, the “hydroxylation of the peptide (mass spectrometry of HPLC purified material)” value was “a mass difference of +8Da of the doubly charged ions, corresponding to +16Da in the peptide (oxygen)”.
